The labels stand for the following.
T1: EsCas13d, nuclease-dead (Eubacterium siraeum, UniProt B0MS50, R295A;H300A;R849A;H854A)
T1 sequence: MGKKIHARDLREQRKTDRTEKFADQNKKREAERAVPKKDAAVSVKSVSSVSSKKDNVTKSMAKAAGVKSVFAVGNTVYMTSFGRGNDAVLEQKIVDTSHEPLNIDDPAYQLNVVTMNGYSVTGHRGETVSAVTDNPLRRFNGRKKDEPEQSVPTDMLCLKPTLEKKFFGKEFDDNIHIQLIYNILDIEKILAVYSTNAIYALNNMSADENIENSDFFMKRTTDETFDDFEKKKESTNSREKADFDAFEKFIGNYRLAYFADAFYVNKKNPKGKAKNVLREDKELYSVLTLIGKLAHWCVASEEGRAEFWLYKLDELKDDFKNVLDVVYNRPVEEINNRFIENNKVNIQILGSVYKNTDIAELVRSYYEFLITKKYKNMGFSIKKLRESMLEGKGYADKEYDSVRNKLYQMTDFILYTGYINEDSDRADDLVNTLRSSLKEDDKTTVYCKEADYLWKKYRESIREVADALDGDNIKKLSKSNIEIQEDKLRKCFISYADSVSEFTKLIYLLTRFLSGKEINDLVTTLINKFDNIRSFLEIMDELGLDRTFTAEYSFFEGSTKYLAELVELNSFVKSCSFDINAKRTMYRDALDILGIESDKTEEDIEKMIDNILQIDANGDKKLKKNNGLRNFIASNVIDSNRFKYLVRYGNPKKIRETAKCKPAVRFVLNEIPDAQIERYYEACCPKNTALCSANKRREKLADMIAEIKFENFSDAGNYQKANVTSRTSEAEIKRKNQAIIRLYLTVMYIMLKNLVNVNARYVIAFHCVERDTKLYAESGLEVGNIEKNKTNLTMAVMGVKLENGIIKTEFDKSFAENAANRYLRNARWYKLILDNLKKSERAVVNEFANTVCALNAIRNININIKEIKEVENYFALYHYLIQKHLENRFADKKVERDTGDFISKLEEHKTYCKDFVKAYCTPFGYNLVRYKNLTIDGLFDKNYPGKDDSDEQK

B1: target 1 C7A,G15C (mixed)
RNA 1: CACCCGUGCAAAAAUGCAGGGGUCUAAAACUGAGCGGAUAACCUCUCUAUGG
RNA 2: GGGAAUGGAUCCACAUCUACGAAUUCGUACCAUAGACAGGUUAUACGCUCACCGAGAUCGGAAGAGCACACGU
B2: target 1 insC 3' of 19,insC 3' of 8 (mixed)
RNA 1: CACCCGUGCAAAAAUGCAGGGGUCUAAAACUGAGCGGAUAACCUCUCUAUGG
RNA 2: GGGAAUGGAUCCACAUCUACGAAUUCGUACCAUCAGAGAGGUUAUCCCGCUCACCGAGAUCGGAAGAGCACACGU
B3: target 1 insG 3' of 18,insC 3' of 17 (mixed)
RNA 1: CACCCGUGCAAAAAUGCAGGGGUCUAAAACUGAGCGGAUAACCUCUCUAUGG
RNA 2: GGGAAUGGAUCCACAUCUACGAAUUCGUACCAUAGGCAGAGGUUAUCCGCUCACCGAGAUCGGAAGAGCACACGU
B4: target 1 insU 3' of 21,insG 3' of 6 (mixed)
RNA 1: CACCCGUGCAAAAAUGCAGGGGUCUAAAACUGAGCGGAUAACCUCUCUAUGG
RNA 2: GGGAAUGGAUCCACAUCUACGAAUUCGUACCUAUAGAGAGGUUAUCCGGCUCACCGAGAUCGGAAGAGCACACGU
B5: target 1 insA 3' of 8,insG 3' of 1 (mixed)
RNA 1: CACCCGUGCAAAAAUGCAGGGGUCUAAAACUGAGCGGAUAACCUCUCUAUGG
RNA 2: GGGAAUGGAUCCACAUCUACGAAUUCGUACCAUAGAGAGGUUAUACCGCUCAGCCGAGAUCGGAAGAGCACACGU
B6: target 1 insA 3' of 19,insA 3' of 5 (mixed)
RNA 1: CACCCGUGCAAAAAUGCAGGGGUCUAAAACUGAGCGGAUAACCUCUCUAUGG
RNA 2: GGGAAUGGAUCCACAUCUACGAAUUCGUACCAUAAGAGAGGUUAUCCGACUCACCGAGAUCGGAAGAGCACACGU
B7: target 1 C7G,C22A (mixed)
RNA 1: CACCCGUGCAAAAAUGCAGGGGUCUAAAACUGAGCGGAUAACCUCUCUAUGG
RNA 2: GGGAAUGGAUCCACAUCUACGAAUUCGUAACAUAGAGAGGUUAUGCGCUCACCGAGAUCGGAAGAGCACACGU
B8: target 1 C6G,C21A (mixed)
RNA 1: CACCCGUGCAAAAAUGCAGGGGUCUAAAACUGAGCGGAUAACCUCUCUAUGG
RNA 2: GGGAAUGGAUCCACAUCUACGAAUUCGUACAAUAGAGAGGUUAUCGGCUCACCGAGAUCGGAAGAGCACACGU
B9: target 1 U3A,C21U (mixed)
RNA 1: CACCCGUGCAAAAAUGCAGGGGUCUAAAACUGAGCGGAUAACCUCUCUAUGG
RNA 2: GGGAAUGGAUCCACAUCUACGAAUUCGUACUAUAGAGAGGUUAUCCGCACACCGAGAUCGGAAGAGCACACGU
B10: target 1 insU 3' of 18,insC 3' of 12 (mixed)
RNA 1: CACCCGUGCAAAAAUGCAGGGGUCUAAAACUGAGCGGAUAACCUCUCUAUGG
RNA 2: GGGAAUGGAUCCACAUCUACGAAUUCGUACCAUAUGAGAGGCUUAUCCGCUCACCGAGAUCGGAAGAGCACACGU
B11: target 1 del4,del14 (mixed)
RNA 1: CACCCGUGCAAAAAUGCAGGGGUCUAAAACUGAGCGGAUAACCUCUCUAUGG
RNA 2: GGGAAUGGAUCCACAUCUACGAAUUCGUACCAUAGAGGGUUAUCCGUCACCGAGAUCGGAAGAGCACACGU
B12: target 1 insC 3' of 10,insA 3' of 7 (mixed)
RNA 1: CACCCGUGCAAAAAUGCAGGGGUCUAAAACUGAGCGGAUAACCUCUCUAUGG
RNA 2: GGGAAUGGAUCCACAUCUACGAAUUCGUACCAUAGAGAGGUUCAUCACGCUCACCGAGAUCGGAAGAGCACACGU
B13: target 1 insU 3' of 22,insA 3' of 11 (mixed)
RNA 1: CACCCGUGCAAAAAUGCAGGGGUCUAAAACUGAGCGGAUAACCUCUCUAUGG
RNA 2: GGGAAUGGAUCCACAUCUACGAAUUCGUACUCAUAGAGAGGUAUAUCCGCUCACCGAGAUCGGAAGAGCACACGU
B14: target 1 U10C,A16G (mixed)
RNA 1: CACCCGUGCAAAAAUGCAGGGGUCUAAAACUGAGCGGAUAACCUCUCUAUGG
RNA 2: GGGAAUGGAUCCACAUCUACGAAUUCGUACCAUAGGGAGGUCAUCCGCUCACCGAGAUCGGAAGAGCACACGU
B15: target 1 U10C,C21U (mixed)
RNA 1: CACCCGUGCAAAAAUGCAGGGGUCUAAAACUGAGCGGAUAACCUCUCUAUGG
RNA 2: GGGAAUGGAUCCACAUCUACGAAUUCGUACUAUAGAGAGGUCAUCCGCUCACCGAGAUCGGAAGAGCACACGU
B16: target 1 G5U,A16U (mixed)
RNA 1: CACCCGUGCAAAAAUGCAGGGGUCUAAAACUGAGCGGAUAACCUCUCUAUGG
RNA 2: GGGAAUGGAUCCACAUCUACGAAUUCGUACCAUAGUGAGGUUAUCCUCUCACCGAGAUCGGAAGAGCACACGU
B17: target 1 insA 3' of 12,insA 3' of 8 (mixed)
RNA 1: CACCCGUGCAAAAAUGCAGGGGUCUAAAACUGAGCGGAUAACCUCUCUAUGG
RNA 2: GGGAAUGGAUCCACAUCUACGAAUUCGUACCAUAGAGAGGAUUAUACCGCUCACCGAGAUCGGAAGAGCACACGU
B18: target 1 C6U,G12A (mixed)
RNA 1: CACCCGUGCAAAAAUGCAGGGGUCUAAAACUGAGCGGAUAACCUCUCUAUGG
RNA 2: GGGAAUGGAUCCACAUCUACGAAUUCGUACCAUAGAGAGAUUAUCUGCUCACCGAGAUCGGAAGAGCACACGU
B19: target 1 insC 3' of 15,insG 3' of 14 (mixed)
RNA 1: CACCCGUGCAAAAAUGCAGGGGUCUAAAACUGAGCGGAUAACCUCUCUAUGG
RNA 2: GGGAAUGGAUCCACAUCUACGAAUUCGUACCAUAGAGCAGGGUUAUCCGCUCACCGAGAUCGGAAGAGCACACGU
B20: target 1 insG 3' of 22,insC 3' of 8 (mixed)
RNA 1: CACCCGUGCAAAAAUGCAGGGGUCUAAAACUGAGCGGAUAACCUCUCUAUGG
RNA 2: GGGAAUGGAUCCACAUCUACGAAUUCGUACGCAUAGAGAGGUUAUCCCGCUCACCGAGAUCGGAAGAGCACACGU
B21: target 1 U3G,G17U (mixed)
RNA 1: CACCCGUGCAAAAAUGCAGGGGUCUAAAACUGAGCGGAUAACCUCUCUAUGG
RNA 2: GGGAAUGGAUCCACAUCUACGAAUUCGUACCAUAUAGAGGUUAUCCGCGCACCGAGAUCGGAAGAGCACACGU
B22: target 1 insG 3' of 19,insU 3' of 5 (mixed)
RNA 1: CACCCGUGCAAAAAUGCAGGGGUCUAAAACUGAGCGGAUAACCUCUCUAUGG
RNA 2: GGGAAUGGAUCCACAUCUACGAAUUCGUACCAUGAGAGAGGUUAUCCGUCUCACCGAGAUCGGAAGAGCACACGU
B23: target 1 del17,del18 (mixed)
RNA 1: CACCCGUGCAAAAAUGCAGGGGUCUAAAACUGAGCGGAUAACCUCUCUAUGG
RNA 2: GGGAAUGGAUCCACAUCUACGAAUUCGUACCAUAGAGGUUAUCCGCUCACCGAGAUCGGAAGAGCACACGU
B24: target 1 insG 3' of 18,insG 3' of 3 (mixed)
RNA 1: CACCCGUGCAAAAAUGCAGGGGUCUAAAACUGAGCGGAUAACCUCUCUAUGG
RNA 2: GGGAAUGGAUCCACAUCUACGAAUUCGUACCAUAGGAGAGGUUAUCCGCUGCACCGAGAUCGGAAGAGCACACGU
B25: target 1 insA 3' of 5,insU 3' of 4 (mixed)
RNA 1: CACCCGUGCAAAAAUGCAGGGGUCUAAAACUGAGCGGAUAACCUCUCUAUGG
RNA 2: GGGAAUGGAUCCACAUCUACGAAUUCGUACCAUAGAGAGGUUAUCCGACUUCACCGAGAUCGGAAGAGCACACGU
B26: target 1 insG 3' of 18,insC 3' of 12 (mixed)
RNA 1: CACCCGUGCAAAAAUGCAGGGGUCUAAAACUGAGCGGAUAACCUCUCUAUGG
RNA 2: GGGAAUGGAUCCACAUCUACGAAUUCGUACCAUAGGAGAGGCUUAUCCGCUCACCGAGAUCGGAAGAGCACACGU
B27: target 1 insC 3' of 22,insG 3' of 9 (mixed)
RNA 1: CACCCGUGCAAAAAUGCAGGGGUCUAAAACUGAGCGGAUAACCUCUCUAUGG
RNA 2: GGGAAUGGAUCCACAUCUACGAAUUCGUACCCAUAGAGAGGUUAGUCCGCUCACCGAGAUCGGAAGAGCACACGU

Here are results for 27 molecules from article PMC10786891, “Massively parallel profiling of RNA-targeting CRISPR-Cas13d”.

For this data set, the target named is T1, EsCas13d, nuclease-dead. As to the kind of experiment: crRNA (strand 1, pre-loaded); Mg2+; 40 mM Tris-HCl pH 7.5, 150 mM NaCl, 6 mM MgCl2, 1 mM DTT, 0.1% Tween-20, 0.2 mg/ml BSA; 25 C; 10 min per concentration, then washed. The conditions noted are these: tags: His6-TwinStrep-SUMO cleaved; N-terminal SNAP kept (SNAP-Surface 488); label: 3' end held by stalled T7 RNA polymerase.
Molecule B1 yielded a Kd of 84 ± 25 nM. As to B2, the affinity, expressed as Kd, was 52 ± 5 nM. In turn, B3 yielded a Kd of 89 ± 32 nM. The result for B4 reads 28.1 ± 3 nM; that for B5, 18.3 ± 0.8 nM; that for B6, 16 ± 1.2 nM.

As to B7, the Kd was 14.2 ± 0.6 nM. In the case of B8 it was 24.3 ± 1.5 nM; in that of B9, 19 ± 6 nM; in that of B10, approximately 90 nM. Consider B11, for which binding was characterised by a dissociation constant (Kd) of 84 ± 32 nM.

Turning to B12, the Kd is 11.2 ± 0.6 nM. B13: the Kd was 66 ± 15 nM. Molecule B14 showed a Kd of 62 ± 7 nM.

In the case of B15, the affinity, expressed as Kd, was 8.5 ± 0.4 nM. As to B16, the Kd was 66 ± 10 nM. In the case of B17 it was 37 ± 3.3 nM; in that of B18, 11.1 ± 0.5 nM; in that of B19, 22.7 ± 1.8 nM. In turn, B20 registered a Kd of approximately 90 nM. B21: the Kd was 20.8 ± 1.6 nM. In turn, B22 came in with a Kd of 86 ± 18 nM. B23: the Kd turned out to be 13.9 ± 1.6 nM.

For the molecule B24, the Kd is 40 ± 2.7 nM. The molecule B25 displayed a Kd of 9.8 ± 1 nM. B26 showed a Kd of approximately 80 nM. For the molecule B27, the Kd was 33 ± 16 nM.

The term Kd denotes the equilibrium constant for the complex coming apart.
